The values that follow come from article doi:10.1101/2025.10.16.682774 (bioRxiv, 2025).

This experiment concerns the target T1, flag-tagged p115 head domain (1-655) (human, UniProt O60763 1-655).
T1 sequence (looked up): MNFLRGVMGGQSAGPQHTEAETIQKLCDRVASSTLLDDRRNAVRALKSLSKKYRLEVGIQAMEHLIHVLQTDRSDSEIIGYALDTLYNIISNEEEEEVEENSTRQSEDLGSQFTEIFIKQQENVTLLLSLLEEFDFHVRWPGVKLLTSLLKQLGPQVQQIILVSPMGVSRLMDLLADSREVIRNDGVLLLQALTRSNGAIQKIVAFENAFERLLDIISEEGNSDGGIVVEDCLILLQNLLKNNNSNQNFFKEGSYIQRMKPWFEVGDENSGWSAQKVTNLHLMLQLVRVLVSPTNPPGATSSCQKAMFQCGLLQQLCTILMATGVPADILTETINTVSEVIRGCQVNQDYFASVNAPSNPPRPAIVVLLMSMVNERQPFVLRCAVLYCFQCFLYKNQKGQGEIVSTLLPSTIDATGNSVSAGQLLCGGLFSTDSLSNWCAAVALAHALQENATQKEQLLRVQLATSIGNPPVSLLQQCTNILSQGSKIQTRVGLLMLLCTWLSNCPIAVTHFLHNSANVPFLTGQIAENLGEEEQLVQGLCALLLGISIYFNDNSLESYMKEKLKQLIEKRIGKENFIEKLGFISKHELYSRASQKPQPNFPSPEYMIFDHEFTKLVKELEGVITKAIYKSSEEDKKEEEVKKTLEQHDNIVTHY
Description: pull-down.

B1: Sec16A(650-776)-GFP (domain or fragment, human, UniProt O15027 650-776, looked up)
chain: ALPDASPGNLEQPPDNMETLCAPQVCPLPLNSTTEAVHMLPHAGAPPLDTVYPAPEKRPSARTQGPVKCESPATTLWAQSELPDFGGNVLLAPAAPALYVCAKPQPPVVQPPEEAMSGQQSRNPSSA
In the case of B1, the binding result was “binds”.
